Reference: paper PMC7658359

Experiments:
[1] = biological target: Arabidopsis histone H2A (HTA1)-H2B (HTB1) dimer, Q9LD28;Q9LQQ4; assay: ITC
[2] = biological target: Arabidopsis histone H2A (HTA1)-H2B (HTB1) dimer (Arabidopsis thaliana) (UniProt Q9LD28); assay: ITC; MicroCal iTC200; OsChz1-C or its mutants injected into histone H2A-H2B or H2A.Z-H2B solutions; 19 injections of 2 μl
[3] = biological target: Arabidopsis histone variant H2A.Z (HTA9)-H2B (HTB1) dimer (Arabidopsis thaliana) (UniProt Q9C944); assay: as above

Sequence of Arabidopsis histone H2A (HTA1)-H2B (HTB1) dimer (Arabidopsis thaliana) (Q9LD28 whole entry, chain 1 of 2): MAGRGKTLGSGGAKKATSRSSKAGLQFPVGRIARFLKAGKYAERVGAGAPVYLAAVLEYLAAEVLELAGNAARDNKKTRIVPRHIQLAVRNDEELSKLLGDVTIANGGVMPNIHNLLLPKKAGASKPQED
Sequence of Arabidopsis histone H2A (HTA1)-H2B (HTB1) dimer (Arabidopsis thaliana) (Q9LQQ4 whole entry, chain 2 of 2, further chain): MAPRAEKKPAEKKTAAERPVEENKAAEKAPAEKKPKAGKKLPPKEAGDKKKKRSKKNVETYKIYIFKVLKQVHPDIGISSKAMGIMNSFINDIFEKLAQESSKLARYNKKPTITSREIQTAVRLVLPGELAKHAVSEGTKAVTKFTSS

Row | Kd [3] [nM] | Substance | Kd [1] [nM] | Kd [2] [nM]
1 |  | OsChz1-C (OsChz1 338–471), wild type 1M | 150 | 
2 |  | OsChz1-C (OsChz1 338–471), wild type 2M | 259 | 
3 |  | OsChz1-C (OsChz1 338–471), wild type 3M | 146 | 
4 | 64.1 | OsChz1-C (OsChz1 338–471), wild type (domain or fragment) |  | 9.8
